{"source": "paper PMC8264304", "system": "MexR (CSP18) (Pseudomonas aeruginosa clinical isolate CSP18)", "test": "MST", "settings": "MST: 10 mM Tris, 1 mM DTT, room temperature", "data": [{"substance": "mexR-mexA intergenic region", "values": [{"measurement": "Kd", "result": 1100, "unit": "nM"}]}]}
